US20220213196A1 (GRITSTONE BIO, published 2022)

Target: HLA-B*35:01_… (HLA-PEPTIDE target G5), recombinant soluble complex (human, UniProt P01889 25-297 at identity 0.94); P61769 21-119, enzymatically biotinylated (BirA) for screening and functional assays)
Test: scFv PPE ELISA

Binder	fold binding to target pHLA over minipool of negative control pHLAs [fold]
scFv G5-P1B12 (scFv, V domains shown) VH: EVQLLESGGGLVQPGGSLRLSCAASGFTFSNSDMNWVRQAPGKGLEWVASISSSGGYINYADSVKGRFTISRDNSKNTLYLQMNSLRAEDTAVYYCAKVNWNDGPYFDYWGQGTLVTVSS VL: DIQMTQSPSSLSASVGDRVTITCRASQSISSWLAWYQQKPGKAPKLLIYAASSLQSGVPSRFSGSGSGTDFTLTISSLQPEDFATYYCQQANSFPLTFGGGTKVEIK	≥ 3
scFv G5-P4E04 (scFv, V domains shown) VH: QVQLVQSGAEVKKPGASVKVSCKASGGTFSSYGISWVRQAPGQGLEWMGWINPNSGVTKYAQKFQGRVTMTRDTSTSTVYMELSSLRSEDTAVYYCARGDYYFDYWGQGTLVTVSS VL: DIQMTQSPSSLSASVGDRVTITCRASQSISRFLNWYQQKPGKAPKLLIYGASRPQSGVPSRFSGSGSGTDFTLTISSLQPEDFATYYCQQSYSTPLTFGQGTKVEIK	≥ 3
scFv G5-P1C12 (scFv, V domains shown) VH: QVQLVQSGAEVKKPGSSVKVSCKASGGTFSNFGVSWLRQAPGQGLEWMGGIIPILGTANYAQKFQGRVTITADESTSTAYMELSSLRSEDTAVYYCATPTNSGYYGPYYYYGMDVWGQGTTVTVSS VL: DIQMTQSPSSLSASVGDRVTITCRASQSISSWLAWYQQKPGKAPKLLIYAASTLQSGVPSRFSGSGSGTDFTLTISSLQPEDFATYYCQQSYSIPLTFGGGTKVEIK	≥ 3
scFv G5-P3G01 (scFv, V domains shown) VH: QVQLVQSGAEVKKPGASVKVSCKASGGTFSGYLVSWVRQAPGQGLEWMGWINPNSGGTNTAQKFQGRVTMTRDTSTSTVYMELSSLRSEDTAVYYCAREGYGMDVWGQGTTVTVSS VL: not shown	≥ 3
scFv G5R4-P4B01 (scFv, V domains shown) VH: QVQLVQSGAEVKKPGSSVKVSCKASGGTFSSYAISWVRQAPGQGLEWMGGIIPIVGTANYAQKFQGRVTITADESTSTAYMELSSLRSEDTAVYYCARGGSYYYYGMDVWGQGTTVTVSS VL: not shown	≥ 3
scFv G5R4-P2B10 (scFv, V domains shown) VH: QVQLVQSGAEVKKPGASVKVSCKASGGTFSSYAISWVRQAPGQGLEWMGWMNPDSGSTGYAQRFQGRVTMTRDTSTSTVYMELSSLRSEDTAVYYCARGHSSGWYYYYGMDVWGQGTTVTVSS VL: not shown	≥ 3
scFv G5-P4B02 (scFv, V domains shown) VH: QVQLVQSGAEVKKPGASVKVSCKASGYTFTGYYMHWVRQAPGQGLEWMGWMNPNIGNTGYAQKFQGRVTMTRDTSTSTVYMELSSLRSEDTAVYYCARGIADSGSYYGNGRDYYYGMDVWGQGTTVTVSS VL: DIVMTQSPDSLAVSLGERATINCKTSQSVLYRPNNENYLAWYQQKPGQPPKLLIYQASIREPGVPDRFSGSGSGTDFTLTISSLQAEDVAVYYCQQYYTTPYTFGQGTKLEIK	≥ 3
scFv G5R4-P1H11 (scFv, V domains shown) VH: EVQLLESGGGLVKPGGSLRLSCAASGFTFSDYYMSWVRQAPGKGLEWVSYISSSSSYTNYADSVKGRFTISRDDSKNTLYLQMNSLKTEDTAVYYCARDVVANFDYWGQGTLVTVSS VL: EIVMTQSPATLSVSPGERATLSCRASQSVSSNLAWYQQKPGQAPRLLIYAASARASGIPARFSGSGSGTEFTLTISSLQSEDFAVYYCQQYGSWPRTFGQGTKVEIK	≥ 3
scFv G5-P1-E05 (scFv, V domains shown) VH: QVQLVQSGAEVKKPGASVKVSCKASGYTFTSYNMHWVRQAPGQGLEWMGWINPNSGGTNYAQKFQGRVTMTRDTSTSTVYMELSSLRSEDTAVYYCARDVMDVWGQGTTVTVSS VL: DIQMTQSPSSLSASVGDRVTITCRASQGISNYLNWYQQKPGKAPKLLIYYASSLQSGVPSRFSGSGSGTDFTLTISSLQPEDFATYYCQQTYMMPYTFGQGTKVEIK	≥ 3
scFv G5-P3G08 (scFv, V domains shown) VH: QVQLVQSGAEVKKPGASVKVSCKASGYIFRNYPMHWVRQAPGQGLEWMGWINPDSGGTKYAQKFQGRVTMTRDTSTSTVYMELSSLRSEDTAVYYCARDNGVGVDYWGQGTLVTVSS VL: DIQMTQSPSSLSASVGDRVTITCRASQGISNYLAWYQQKPGKAPKLLIYAASSLQSGVPSRFSGSGSGTDFTLTISSLQPEDFATYYCQQSYITPYTFGQGTKLEIK	≥ 3
scFv G5R4-P3G05 (scFv, V domains shown) VH: QVQLVQSGAEVKKPGASVKVSCKASGYTFTNYYMHWVRQAPGQGLEWMGIINPSGGSTSYAQKFQGRVTMTRDTSTSTVYMELSSLRSEDTAVYYCARSWFGGFNYHYYGMDVWGQGTTVTVSS VL: DIQMTQSPSSLSASVGDRVTITCQASEDISNHLNWYQQKPGKAPKLLIYDALSLQSGVPSRFSGSGSGTDFTLTISSLQPEDFATYYCQQANSFPFTFGPGTKVDIK	≥ 3
scFv G5R4-P1D06 (scFv, V domains shown) VH: QVQLVQSGAEVKKPGASVKVSCKASGYTFTSYDINWVRQAPGQGLEWMGWINPNSGDTKYSQKFQGRVTMTRDTSTSTVYMELSSLRSEDTAVYYCARDGTRYYGMDVWGQGTTVTVSS VL: not shown	≥ 3

Target: HLA-A*01:01_… (HLA-PEPTIDE target G10), recombinant soluble complex (human, UniProt P04439-2 25-297; P61769 21-119, enzymatically biotinylated (BirA) for screening and functional assays)
Test: scFv PPE ELISA

Binder	fold binding to target pHLA over minipool of negative control pHLAs [fold]
scFv R3G10-P2G11 (scFv, V domains shown) VH: QVQLVQSGAEVKKPGASVKVSCKASGGTFSTHDINWVRQAPGQGLEWMGVINPSGGSAIYAQKFQGRVTMTRDTSTSTVYMELSSLRSEDTAVYYCARDRGYSYGYFDYWGQGTLVTVSS VL: DIQMTQSPSSLSASVGDRVTITCRASQDISRYLAWYQQKPGKAPKLLIYDASNLETGVPSRFSGSGSGTDFTLTISSLQPEDFATYYCQQANSFPRTFGQGTKVEIK	≥ 3
scFv R3G10-P4D10 (scFv, V domains shown) VH: QVQLVQSGAEVKKPGASVKVSCKASGYTFTGYYLHWVRQAPGQGLEWMGMIGPSDGSTSYAQKFQGRVTMTRDTSTSTVYMELSSLRSEDTAVYYCARDGDAFDIWGQGTMVTVSS VL: DIQMTQSPSSLSASVGDRVTITCRASQGISSWLAWYQQKPGKAPKLLIYDASNLETGVPSRFSGSGSGTDFTLTISSLQPEDFATYYCQQSYSTPLTFGGGTKVEIK	≥ 3
scFv R3G10-P4E07 (scFv, V domains shown) VH: QVQLVQSGAEVKKPGSSVKVSCKASGYTFTGYYMHWVRQAPGQGLEWMGRISPSDGSTTYAPKFQGRVTITADESTSTAYMELSSLRSEDTAVYYCARDMGDAFDIWGQGTTVTVSS VL: not shown	≥ 3
scFv R3G10-P4D04 (scFv, V domains shown) VH: QVQLVQSGAEVKKPGASVKVSCKASGYTFTGYYVHWVRQAPGQGLEWMGIIAPSDGSTNYAQKFQGRVTMTRDTSTSTVYMELSSLRSEDTAVYYCARDPGGYMDVWGKGTTVTVSS VL: DIQMTQSPSSLSASVGDRVTITCRASQSISSYLAWYQQKPGKAPKLLIYDASKLETGVPSRFSGSGSGTDFTLTISSLQPEDFATYYCQQSYGVPTFGQGTKLEIK	≥ 3
scFv R3G10-P2C04 (scFv, V domains shown) VH: QVQLVQSGAEVKKPGASVKVSCKASGGTFSNSIINWVRQAPGQGLEWMGWMNPNSGNTNYAQKFQGRVTMTRDTSTSTVYMELSSLRSEDTAVYYCAREQWPSYWYFDLWGRGTLVTVSS VL: not shown	≥ 3
scFv R3G10-P5C08 (scFv, V domains shown) VH: QVQLVQSGAEVKKPGASVKVSCKASGYNFTGYYMHWVRQAPGQGLEWMGIIAPSDGSTNYAQKFQGRVTMTRDTSTSTVYMELSSLRSEDTAVYYCARETGDDAFDIWGQGTMVTVSS VL: not shown	≥ 3
scFv R3G10-P3E04 (scFv, V domains shown) VH: QVQLVQSGAEVKKPGASVKVSCKASGNTFIGYYVHWVRQAPGQGLEWVGIINPNGGSISYAQKFQGRVTMTRDTSTSTVYMELSSLRSEDTAVYYCARGSGDPNYYYYYGLDVWGQGTTVTVSS VL: DIQMTQSPSSLSASVGDRVTITCQASQDISNYLNWYQQKPGKAPKLLIYAASNLQSGVPSRFSGSGSGTDFTLTISSLQPEDFATYYCQQANSLPYTFGQGTKVEIK	≥ 3
scFv R3G10-P4C05 (scFv, V domains shown) VH: QVQLVQSGAEVKKPGASVKVSCKASGYTFTGYYMHWVRQAPGQGLEWMGIIGPSDGSTTYAQKFQGRVTMTRDTSTSTVYMELSSLRSEDTAVYYCARAENGMDVWGQGTTVTVSS VL: DIQMTQSPSSLSASVGDRVTITCRASQRISSYLNWYQQKPGKAPKLLIYSASTLQSGVPSRFSGSGSGTDFTLTISSLQPEDFATYYCQQSYSTPFTFGPGTKVDIK	≥ 3
scFv R3G10-P4A02 (scFv, V domains shown) VH: QVQLVQSGAEVKKPGASVKVSCKASGYTLSYYYMHWVRQAPGQGLEWMGMIGPSDGSTSYAQRFQGRVTMTRDTSTGTVYMELSSLRSEDTAVYYCARDTGDHFDYWGQGTLVTVSS VL: not shown	≥ 3
scFv R3G10-P4G06 (scFv, V domains shown, VH and VL as printed equal those of R3G10-P4A02) VH: QVQLVQSGAEVKKPGASVKVSCKASGYTLSYYYMHWVRQAPGQGLEWMGMIGPSDGSTSYAQRFQGRVTMTRDTSTGTVYMELSSLRSEDTAVYYCARDTGDHFDYWGQGTLVTVSS VL: not shown	≥ 3

Target: HLA-A*01:01_… (HLA-PEPTIDE target G2), recombinant soluble complex (human, UniProt P04439-2 25-297; P61769 21-119, enzymatically biotinylated (BirA) for screening and functional assays)
Test: BLI (Octet), biotinylated pHLA on streptavidin sensors, Fab in solution

Binder	Kd [nM]	koff [s⁻¹]	kon [M⁻¹ s⁻¹]
Fab G2-P1H11 (Fab, V domains shown, Fab) VH: QVQLVQSGAEVKKPGASVKVSCKASGYTFTNYYMHWVRQAPGQGLEWMGMINPSGGGTSYAQKFQGRVTMTRDTSTSTVYMELSSLRSEDTAVYYCARGNPWELRLDYWGQGTLVTVSS VL: DIQMTQSPSSLSASVGDRVTITCQASQDISNYLNWYQQKPGKAPKLLIYAASSLQSGVPSRFSGSGSGTDFTLTISSLQPEDFATYYCQQYYSYPFTFGPGTKVDIK	46.1	0.0233	527000
